In US6150090:

Molecular target: IgNF-A (NF-A1), ubiquitous octamer-binding protein (Homo sapiens) (UniProt P14859)
Experiment: EMSA
Details: affinity over heterologous plasmid DNA; poly(dI-dC) carrier; DNase I footprint -72 to -52

Chain of IgNF-A (NF-A1), ubiquitous octamer-binding protein (Homo sapiens) (P14859 whole entry): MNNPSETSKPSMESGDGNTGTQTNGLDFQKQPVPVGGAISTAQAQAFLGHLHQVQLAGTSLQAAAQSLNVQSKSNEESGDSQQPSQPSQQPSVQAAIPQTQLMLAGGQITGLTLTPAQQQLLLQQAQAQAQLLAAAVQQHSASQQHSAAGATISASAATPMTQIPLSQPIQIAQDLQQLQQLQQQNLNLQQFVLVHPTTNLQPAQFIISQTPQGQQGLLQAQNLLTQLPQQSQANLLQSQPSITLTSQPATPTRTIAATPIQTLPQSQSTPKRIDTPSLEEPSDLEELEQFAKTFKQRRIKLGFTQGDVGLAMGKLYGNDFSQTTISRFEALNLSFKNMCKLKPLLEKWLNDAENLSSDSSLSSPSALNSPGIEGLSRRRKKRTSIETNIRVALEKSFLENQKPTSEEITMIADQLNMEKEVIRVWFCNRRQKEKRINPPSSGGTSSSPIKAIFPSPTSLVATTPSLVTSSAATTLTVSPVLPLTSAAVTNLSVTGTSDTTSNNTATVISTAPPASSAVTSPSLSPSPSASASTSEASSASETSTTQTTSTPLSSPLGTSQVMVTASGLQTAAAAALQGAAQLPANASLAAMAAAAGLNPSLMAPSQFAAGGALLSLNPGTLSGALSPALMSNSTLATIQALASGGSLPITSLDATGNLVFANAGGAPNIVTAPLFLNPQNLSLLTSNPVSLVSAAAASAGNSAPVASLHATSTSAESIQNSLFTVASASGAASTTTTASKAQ

MOPC41 V kappa promoter PvuII-SfaNI fragment
binding signal: > 10000 fold
